Biological target: CD40 (Cluster of Differentiation 40) on cells (UniProt P25942)
Sequence (P25942 21-277 limits assumed): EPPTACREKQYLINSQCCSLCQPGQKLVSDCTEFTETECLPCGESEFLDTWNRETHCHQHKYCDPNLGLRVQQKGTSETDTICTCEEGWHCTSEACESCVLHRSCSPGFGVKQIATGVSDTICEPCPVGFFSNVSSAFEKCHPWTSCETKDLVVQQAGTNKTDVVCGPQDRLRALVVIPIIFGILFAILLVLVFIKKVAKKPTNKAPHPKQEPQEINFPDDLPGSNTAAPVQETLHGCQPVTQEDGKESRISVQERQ

CD40L (Invivogen), native CD40 binding partner, sequence (P29965 113-261 limits assumed): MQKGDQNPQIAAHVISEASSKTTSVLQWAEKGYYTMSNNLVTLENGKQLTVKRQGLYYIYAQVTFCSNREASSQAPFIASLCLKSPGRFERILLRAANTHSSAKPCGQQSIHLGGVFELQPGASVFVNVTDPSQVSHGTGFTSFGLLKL

**Q.** “CD40L (Invivogen), native CD40 binding partner (from UniProt P29965 113-261) (ligand)” was tested. Which EC50, CD40 RGA, FcgRIIB CHOK1 did it give?
**A.** The EC50, CD40 RGA, FcgRIIB CHOK1 was 0.81 µg/mL.

**Q.** What about the EC50, CD40 RGA, HEK Blue only of the same substance?
**A.** The EC50, CD40 RGA, HEK Blue only was 0.43 µg/mL.

**Q.** And the EC50, CD40 RGA, WT CHOK1?
**A.** Its EC50, CD40 RGA, WT CHOK1 is 0.44 µg/mL.

**Q.** And the Fold wrt WT (EC50, relative to v32477 - uPa), CD40 RGA, FcgRIIB CHOK1?
**A.** The Fold wrt WT (EC50, relative to v32477 - uPa), CD40 RGA, FcgRIIB CHOK1 was 16.6 fold.

**Q.** What about the Fold wrt WT (EC50, relative to v32477 - uPa), CD40 RGA, HEK Blue only of the same substance?
**A.** The Fold wrt WT (EC50, relative to v32477 - uPa), CD40 RGA, HEK Blue only was 2.76 fold.

**Q.** What about the Fold wrt WT (EC50, relative to v32477 - uPa), CD40 RGA, WT CHOK1 of the same substance?
**A.** The Fold wrt WT (EC50, relative to v32477 - uPa), CD40 RGA, WT CHOK1 was 3.19 fold.

From patent US20230331809A1
